Measurements published in a protein production outcome set (Wang et al. 2014).

Assay: label from the status in PepcDB records

**Q.** Which protein production does the source give for “MPPRKKPKSSALKSNKQSSANHSSQPSTFGIQQLFLRHIQNSQSTSNSHTSTADPVDQQNVNGLASDTAVLTPQNPLGTSNEKPDESKDMDQQLTEASPKISKNLKRFSPGMLIKQSQDDCGGEITWKISPVNERLRAAAKNIPKMMDLTENSLGKQCPTSGITSKVEQWLSSPSKKASKRPAFATNRVMERVNPSPDAEFEIVNTSSSGNSPFQTPPSLSCPHNKLPCTVTCSGACGSMGAGQHKKALLELLDQVEDVIAVDDKTTDDVGIVMPQARVKDDIISSVVDCAVDEGPVSLPKMQNSINPDSYFLVLEVSEKRGSGSSSKGQCPYKVLRLLDEHTGVECALYLWDEWFYSTVSPGDSINVIGEFDGDGKCDVDRQNNFLIVHPDTLVAGTRVAASFGCPRRTVLDERLRSNEHATVALLGTLQHQVFQAGLSQESPSVDGLQEYASTVIEKSIESLYACGVHEGDVRSTLFKAIPKMLNWIEHFRYSKDSEVSKVDFGSTIGKKAVKVSEVIDIEEMSWAPKYGLKGMIDASVRVIVESDMNTVNEKIMPLEFKSGKAPSGQSSIEHSAQVILYTLLMSERYLKHIDNGLLYYLQSDQTQGISVQRSDLVGLIIRRNELANDILVASTTQQLPPMLRADGGNTESSGLGDVFDTHVSHLSTLHFNFLRHWDRLIDLEGREMQLLRKDIAHPHGSKGSHSASYLSSMVLDVTNGFQHHNSHKETRFIYRFVRQKSSESRERVTSEDMIRTGNLATDDLDCKLRTGDRVILRTEVSHLTVANGIIADISRTHISVSLSKRLRLPWSEPSSEVSNLSHELWRIYKDEFMTSFSVMRFNLMQLFVQNGHNIRKMIVDLEPPRFDNGSILSQDPAISYIWSEKSLNNDQRQAILKILTAKDYALILGMPGTGKTSTMVHAVKALLIRGSSILLASYTNSAVDNLLIKLKAQGIEFLRIGRDEAVHEEVRESCFSAMNMCSVEDIKKKLDQVKVVASTCLGINSPLLVNRRFDVCIIDEAGQIALPVSIGPLLFASTFVLVGDHYQLPPLVQSTEARENGMGISLFRRLSEAHPQAISVLQNQYRMCRGIMELSNALIYGDRLCCGSAEVADATLVLSTSSSTSPWLKKVLEPTRTVVFVNTDMLRAFEARDQNAINNPVEASIIAEIVEELVNNGVDSKDIGIITPYNSQASLIQHAIPTTPVEIHTIDKYQGRDKDCILVSFVRSREKPRSSASSLLGDWHRINVALTRAKKKLIMVGSQRTLSRVPLLMLLLNKVKEQSGILNLLPGDLKP” here?
**A.** failed

**Q.** With “MPQFPWKDNDAELSPLEAFLAEWDDPEAEEEDFRNDFFRGSEGRRKKAAVMLMAIWTVVITLHYWVWGSWLVWALTGALSLQALRLMKATPEEAPPLLTGDASTVPYPQVCLMVAAKNEEAVIGKIVQQLCSLDYPGDRHEVWIVDDNSTDRTPAILDQLRQQYPQLKVVRRGAGASGGKSGALNEVLAQTQGDIVGVFDADANVPKDLLRRVVPYFASPTFGALQVRKAIANEAVNFWTRGQGAEMALDAYFQQQRIVTGGIGELRGNGQFVARQALDAVGGWNEQTITDDLDLTIRLHLHQWKVGILVNPPVEEEGVTTAIALWHQRNRWAEGGYQRYLDYWRWICTQPMGWKKKLDLFSFLLMQYLLPTAAVPDLLMALWQRRFPLLTPLSYLAIGFSCWGMYYGLKRLTPSEGESPWQQMPALLARTIGGTIYMFHWLIIMPAVTARMAFRPKRLKWVKTVHGAATEDALELKQS” as the sequence, how does the protein production read?
**A.** failed

**Q.** Which protein production does the source give for “MPQNYPWLNTEQPLSIKQLNGRVVILDFWTYCCINCLHVLPDLKYLEQKYKDSLTVIGVHSAKFDNEQETENIRQAILRYDIEHPVLVDKDFRVWQEYAVRAWPTLMVIDPKGYVIGYVSGEGNRDKLDQLITQVIQEHQGAINFQQLSLTLEKQRQPLITPLAFPGKVLATPSGLFVADSGHHRIVVSDFNGEILHLIGNGKSGLTDGNFQEAQFSAPQGMAFDMENQILYLADTENHALRRVDINQQTVETIAGTGEQSRNIQPHGGVGLETALNSPWDLVNIENSLYIAMAGVHQIWQMDLASGVIKTYAGTGVEACLDASLTESAFAQPSGITNNEQELYIADSEISSIRGVGLVEPQEVRTVCGSGGLFGFGDVDGQGEDVRLQHCLGVEYFQNYLWVADTYNHKIKSVSPHTGNCQTVLGDGLAGLQNGQGKNTRFFEPSGLSAIDSYLYISDTNNHVIRRVDLRTLEVTTMQFNGLCAPDVCIPNNFLEHHHHHH” here?
**A.** not failed

**Q.** Which protein production does the source give for “MPQPDPQGFRRSLFLYRRAGMAEIGDFAVKFMIGIRSKRMITLPSLNNLPSKWDEIRHCLETRVFECGVMPYPNLTECEAGQFERDFWDNIGCAPEEYVRIRRAIRLLELRYPDSLNELVCAAIATPLGEMLAVFGVKGLCLLEFVGQKYLEQEIAAVQKALRGRFVFREDGRMQFLRQELDLYFKGHLKTFATPLEQIGTEFQKQAWDALLAIPYGETRSYKEQAQRLGNPKAVRAVAAANGQNKVSVMIPCHRVIGSDGKLTGYAGGLNRKQFLLALERGEVQTALF” here?
**A.** failed

**Q.** Which protein production does the source give for “MPQPTSQQRASVASSQSTQGAVGWSAATGWVVLFVAVALVVWFVSLDMRHLVGPDEGRYAEISREMFASGDWVTIRYNALKYFEKPPFHMWVTVVGYELFGLGEWQARLAVALSGLLGIGVSMMAARRWFGARAAAFTGLALLAAPMWSVAAHFNTLDMTLAGVMSCVLAFMLMGQHPDASVAARRGWMVACWAAMGVAILTKGLVGIALPGLVLVVYTLVTRDWGLWRRLHLALGVVVMLVITVPWFYLVSVRNPEFPNFFFIHEHWQRYTSNIHSRSGSVFYFLPLVIGGFLPWAGIFPKLWTAMRAPVEGTQARFRPALMAGIWAIAIFVFFSISRSKLPGYIVPVIPALGILAGVALDRLSPRSWGKQLIGMAIVAACGLLASPVVATLNANHIPNSFYRAYAVWVAVAFVVMLLGIAVARLLLRRGVLPSVAVYAMGMYLGFTVALLGHETVGRPASGADIAPQIAQKLTPEMPLYGVQMLDHTLPFYLRHPLMMVGQADELTFGATVEPQRVVPDVDSFTKLWKNGQPAMAVMSPDTYLALAPTLSMYVVARDWRRVVVANVASLAGPQ” here?
**A.** failed

**Q.** With “MPQPTVLLLARADLSPVGTEFTTGPIDAHDPFDSGRRTAFVDEQGIAAGIVEFGTALSVEAYPYTEMLVMHRGSVTLTSGTDSVTLSTGESAVIGRGTQVRIDAQPESLWAFCASTQASGPDKSGITALDRLALLTPSSPPDPSIMISPLPQCRSNNLFEDTASTLRIGVWDSTPYERISRPHKIHELMNLIEGRVVLSLENGSSLTVNTGDTVFVAQGAPCKWTSTGYVRKFYAVT” as the sequence, how does the protein production read?
**A.** not failed

**Q.** With “MPQTSSLLGIDALYQFTGAGAQLFSGALFYTVIVRFFSASQVGAVALFIAIIGLFNLIFSFGLGTAVQHFASYHLGRQEYATAKSIVFKILILGIIFSSIGLITMFYLAKPISITFMHTAQYTPIVKLLSIVLVGDVLFGLLNGSALGLQLFRASGLMNIIIWITYYSTALVLAFLLKSLYYVVVGWSVGIFLGVILYLYLIIKSTKNYKGRPRHLTPSLLFQFSIPVLLSSIISYGATYIDRFIVAGLMTLSALGVYNFALLVASSIGFIVAPLNNIMLPKFSEFYGEGNRENIKNRTAIATTVVAGVYVPAALGVAVLSKMIITLLAGKYYEEGSDAISIIMVFSALFVTSNVMTQLIAAVRETRVFIYSSAASLASNAILSIILIPHFGIEGASIGFSSIYAASFFVLYKYAKKTGFYQANVYDLAKVWGSSLVMVFVVLAFEVRFGTSIDLLVPYILLGAVVYLGMIKSTRLIHRNEALFLSSLFPQSMPFITKLIRLISSE” as the sequence, how does the protein production read?
**A.** failed

**Q.** With “MPREFKSFGSTEKSLLSKGHGEPSYSEIYAEPENFLEIEVHNPKTHIPNGMDSKGMFTDYEIICRTNLPSFHKRVSKVRRRYSDFEFFRKCLIKEISMLNHPKVMVPHLPGKILLSNRFSNEVIEERRQGLNTWMQSVAGHPLLQSGSKVLVRFIEAEKFVG” as the sequence, how does the protein production read?
**A.** not failed

**Q.** Which protein production does the source give for “MPRITTDTIIADVLRIDRGTIPIFLNNGLHCLGCPSAQGESIEEACALHGIDAQKLVDELNEYLKSKGLLDLEHHHHHH” here?
**A.** not failed

**Q.** With “MPRMEALFNTVVPVALVVLSGYLLGRQLEMDLSTLSRLTLYALVPALILDSMYRAEYTLEGVWGLVLGFSLTYALLFLLVQGAGKLFGLSRETTKTLLVCGLFPNSGNMGLSLVYFALGEEGLRRAVVYFLLSSALMFGLGPAFIRGGSLKEGLLFTLRLPLFYALFLGLLLKALGLSLPFRLEEGVRLMGQAAIPVLLLTLGMQMGKTRFHLGPFEGAASALRLLLAPLVAYGVGALLGLPRLEHQVLVLQSATPVAVNAFLLTREFGGDALRVARSVVVSTFLAFLTVPLVLYLLGVR” as the sequence, how does the protein production read?
**A.** failed

**Q.** With “MPRPDNVPVYTMRQLAAFVAVAETGTISGAAERMHLSQSALSAAVTDLEKALKAQLCVRRRARGVQLTPTGEAVLSRARALLQQAGELQSDASGEGGV” as the sequence, how does the protein production read?
**A.** failed

**Q.** With “MPRPSLRRGEETSGARSLHEIAPPAEKAVRKPLNLLPFRKDTPMTKDSYFHKSRAGVAGAPLFVLLHGTGGDENQFFDFGARLLPQATILSPVGDVSEHGAARFFRRTGEGVYDMVDLERATGKMADFIKANREHYQAGPVIGLGFSNGANILANVLIEQPELFDAAVLMHPLIPFEPKISPAKPTRRVLITAGERDPICPVQLTKALEESLKAQGGTVETVWHPGGHEIRSGEIDAVRGFLAAYGG” as the sequence, how does the protein production read?
**A.** not failed

**Q.** With “MPRRTATMLASTLMLIALLCAGVFIKVPYAEMSPGPTVNTLGEHDGEPVLQITGHKTYATTGHLNMTTVRVTSADYRMNLVEAVYGWLAHDNKVVPHDTLYPDGKTEEQSTQENAEEFSQSQESAKVAALKELDIPVKSWVIVSTVLKDSPAEGRLHAGDVIKAVDGTAVKAPDDVAELVTKHKPGDDVAFTILPAKEQAAAEKSKTYVPRTKKVTITTAKSDDTGAPRAIVGISAGTDHTFPFTVDIKLADVGGPSAGLMFALGIVDKLTPDDLTGGKFVAGTGTIDDDGKVGPIGGIEMKTVGAREKGAQYFLTPKDNCAAAAKDTPEGLTLVKVNTIDDALDALKDIRTGKTADLPKCTTKG” as the sequence, how does the protein production read?
**A.** failed

**Q.** With “MPRSQADSALAEAERHLAAGRSQQAREAFRRARLFFHRCADTDGEAIVLVRLGEAELAAGHLASAKEALSDALALLSHETDPSARADALHLMGSLKNAEKNAPERDRLWAEAVSAHRDHGNKAGEARVLRDQAQVAKATGKDDLAFDLFSRAHRLYADLGHSFHEAMILLEIGQLHRAQGRADLAHDALERAADLFRVNGDTLDEGRTRLTLARLLRDLGDKETALRDLTLCAKLFGANGHLGGQAEALIDLARLEAAKAPKAALKMLHQARALAARSGIPSLQTQAASEIARLDQAALKDTP” as the sequence, how does the protein production read?
**A.** failed

**Q.** For “MPRSTAASAPLTVRPFSLVPLMAAYMACTMSMMAFVSLIGPISRALHLETWHAGAAVTVSGVIWMLLARPWGQASDRFGRRRVLLLGTAGFTLAYWALCLFIDLSLQSLPSVAMAFLGLMLGRGLIGAFYAAIPVGGFALIADNVEPQHRARAMATLGAANAVGLVLGPAVAALLARYSLSLPFYAMAVLPLLAFLVLRYQLPRQELHLAQAPTRVRLGDPRLRRPMVVAFVAMLCVSVAQITVSFYALDRLHMSPADAAQTAGVALAMVGVALICAQLVVRKLEWPPLRMIRYGALLSALGYAGSMLVDSAWGLWLAFFVSAAGMGGVFPSFSALAANAVEASEQGATAGSIGAAQGLGVVIGPMAGSLIYAIEPRLPYLLAAVLLVLIAIWPAPQPKDL”, which protein production is on record?
**A.** failed

**Q.** Which protein production does the source give for “MPRTQKNDNFVDKSFTVMADIILKILPTNKKAKEAFVYYRDGMSAQAEGEYAEALEYYEEALTLEEDTNDRGYILYNMGLIYASNGDHDKALELYHQAIELNPRLPQALNNIAVIYHYQGEKAKETGDHDGGEALFDQAADYWIRAIRMAPNNYIEAQNWLKTTGRMQIDVFF” here?
**A.** failed

**Q.** Which protein production does the source give for “MPSDNQRLALLPVGRTGRLDRPSLLLTGGSGVLGRALIDELSPDFDLLCLRRDTPLRDPRVRELQGDLVAPRLGLSPLAWHELALEVDVVLHCAAETDWRTPPQDITRTNLRGADTVLDLAARADAPLYLVSTAFVANTPTEEDRRHFPGAAAYLDSMARAEQMTREAGVPGAIVRPSVVMGDSGSGRIAGRQGLTRMIGSMVLGQAPVLPGAPATRIDMVPRDYVSRAIGDLVRGGVADGEYWLTAGQEAMGLREFADVCADVAVRHGLPRPQRPRFIPVDAVHRLLLPMLAGTSLPASLRRRLEYYAELLLVFQRELPFDTSLGEPDCGTRPTRTDLRAALVRNAESWAGNRAGLLSPNRSAATAPMEVAS” here?
**A.** failed
